Experimental data: patent publication US20250320281A1

How the values were obtained:
Assay in all cases: cell-based or functional assay
[1] = biological target: HIV-1 Env of isolate DU156 (clade C pseudovirus) (HIV-1)
[2] = biological target: HIV-1 Env of isolate AC10 (clade B pseudovirus) (HIV-1)
[3] = biological target: HIV-1 Env of isolate REJ04541 (clade B pseudovirus) (HIV-1)
[4] = biological target: HIV-1 MGRM-C-027 envelope glycoprotein (Env) on pseudovirus (HIV-1 isolate MGRM-C-027 (clade C))
[5] = biological target: HIV-1 MGRM-C-026 envelope glycoprotein (Env) on pseudovirus (HIV-1 isolate MGRM-C-026 (clade C))
[6] = biological target: HIV-1 92TH021 envelope glycoprotein (Env) on pseudovirus (HIV-1 isolate 92TH021 (clade AE))
[7] = biological target: HIV-1 94UG103 envelope glycoprotein (Env) on pseudovirus (HIV-1 isolate 94UG103 (clade A))
[8] = biological target: HIV-1 NL43 envelope glycoprotein (Env) on pseudovirus (HIV-1 isolate NL43 (clade B))
[9] = biological target: HIV-1 MGRM-A-010 Env (HIV-1)
HIV-1 APV13 Env (HIV-1) = biological target: HIV-1 APV13 Env (HIV-1)
HIV-1 CMU02 Env (HIV-1) = biological target: HIV-1 CMU02 Env (HIV-1)
[10] = biological target: HIV-1 92BR020 Env (HIV-1)
HIV-1 APV6 Env (HIV-1) = biological target: HIV-1 APV6 Env (HIV-1)
[11] = biological target: HIV-1 94UG103 Env (HIV-1)
[12] = biological target: HIV-1 92RW020 Env (HIV-1)
[13] = biological target: HIV-1 MGRM-C-028 Env (HIV-1)
[14] = biological target: HIV-1 MGRM-AG-005 Env (HIV-1)
[15] = biological target: HIV-1 92BR020 Env (pseudovirus) (HIV-1 isolate 92BR020 (clade B))
[16] = biological target: HIV-1 MGRM-D-018 Env (pseudovirus) (HIV-1 isolate MGRM-D-018 (clade D))
[17] = biological target: HIV-1 NL43 Env (pseudovirus) (HIV-1 isolate NL43 (clade B))
[18] = biological target: HIV-1 CMU02 Env (pseudovirus) (HIV-1 isolate CMU02 (clade AE))
[19] = biological target: HIV-1 MGRM-C-026 Env (pseudovirus) (HIV-1 isolate MGRM-C-026 (clade C))
[20] = biological target: HIV-1 93IN905 Env (pseudovirus) (HIV-1 isolate 93IN905 (clade C))
[21] = biological target: HIV-1 92TH021 Env (pseudovirus) (HIV-1 isolate 92TH021 (clade AE))
[22] = biological target: HIV-1 92RW020 Env (pseudovirus) (HIV-1 isolate 92RW020 (clade A))
[23] = biological target: HIV-1 Env of pseudovirus MGRM-A-004 (subtype A) (HIV-1)
[24] = biological target: HIV-1 Env of isolate MGRM-F1-017 (clade F pseudovirus) (HIV-1)
[25] = biological target: HIV-1 Env of isolate MGRM-Chronic-B-001 (HIV-1)
[26] = biological target: HIV-1 Env of pseudovirus MGRM-AG-009 (subtype AG) (HIV-1)
[27] = biological target: HIV-1 Env of isolate MGRM-F1-008 (HIV-1)
[28] = biological target: HIV-1 Env of pseudovirus MGRM-AG-013 (subtype AG) (HIV-1)
[29] = biological target: HIV-1 Env of pseudovirus MGRM-AG-012 (subtype AG) (HIV-1)

1443_C16 (PG16) (TCN-116) (antibody), sequence (VH): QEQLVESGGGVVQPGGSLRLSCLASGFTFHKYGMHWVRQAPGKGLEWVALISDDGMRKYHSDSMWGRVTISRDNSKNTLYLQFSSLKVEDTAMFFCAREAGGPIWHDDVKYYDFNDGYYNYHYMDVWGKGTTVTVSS
1443_C16 (PG16) (TCN-116) (antibody), sequence (VL): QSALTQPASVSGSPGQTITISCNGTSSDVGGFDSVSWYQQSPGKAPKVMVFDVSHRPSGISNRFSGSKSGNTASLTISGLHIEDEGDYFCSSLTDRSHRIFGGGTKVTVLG

1443_C16 (PG16) (TCN-116) (antibody)
IC50 (neutralization, TZM-bl pseudovirus assay) [1]: < 0.01 µg/mL | IC50 (neutralization, TZM-bl pseudovirus assay) [2]: < 0.01 µg/mL | IC50 (neutralization, TZM-bl pseudovirus assay) [3]: < 0.01 µg/mL

1496_C09 (PG9) (TCN-109) (antibody)
neutralization IC50 [4]: 2.45 µg/mL | neutralization IC50 [5]: 0.113 µg/mL | neutralization IC50 [6]: 0.103 µg/mL | neutralization IC80 [6]: 0.448 µg/mL | neutralization IC90 [6]: 1.07 µg/mL | neutralization IC95 [6]: 2.43 µg/mL | neutralization IC50 [7]: 0.31 µg/mL | neutralization IC80 [7]: 1.95 µg/mL | neutralization IC90 [7]: 5.54 µg/mL | neutralization IC50 [8]: 0.687 µg/mL

4877_D15 (PGT-122) (antibody)
Neutralization by PGT-122, IC50 [9]: 1.68 µg/mL | Neutralization by PGT-122, IC80 [9]: > 10 µg/mL | Neutralization by PGT-122, IC90 [9]: > 10 µg/mL | Neutralization by PGT-122, IC95 [9]: > 10 µg/mL | Neutralization by PGT-122, IC50 (HIV-1 APV13 Env (HIV-1)): 0.992 µg/mL | Neutralization by PGT-122, IC80 (HIV-1 APV13 Env (HIV-1)): 4.14 µg/mL | Neutralization by PGT-122, IC90 (HIV-1 APV13 Env (HIV-1)): 8.6 µg/mL | Neutralization by PGT-122, IC95 (HIV-1 APV13 Env (HIV-1)): > 10 µg/mL | Neutralization by PGT-122, IC50 (HIV-1 CMU02 Env (HIV-1)): > 10 µg/mL | Neutralization by PGT-122, IC80 (HIV-1 CMU02 Env (HIV-1)): > 10 µg/mL | Neutralization by PGT-122, IC90 (HIV-1 CMU02 Env (HIV-1)): > 10 µg/mL | Neutralization by PGT-122, IC95 (HIV-1 CMU02 Env (HIV-1)): > 10 µg/mL | Neutralization by PGT-122, IC50 [10]: 0.0337 µg/mL | Neutralization by PGT-122, IC80 [10]: 0.0929 µg/mL | Neutralization by PGT-122, IC90 [10]: 0.168 µg/mL | Neutralization by PGT-122, IC95 [10]: 0.289 µg/mL | Neutralization by PGT-122, IC50 (HIV-1 APV6 Env (HIV-1)): 0.0851 µg/mL | Neutralization by PGT-122, IC80 (HIV-1 APV6 Env (HIV-1)): 0.351 µg/mL | Neutralization by PGT-122, IC90 (HIV-1 APV6 Env (HIV-1)): 0.779 µg/mL | Neutralization by PGT-122, IC95 (HIV-1 APV6 Env (HIV-1)): 1.55 µg/mL | Neutralization by PGT-122, IC50 [11]: 1.46 µg/mL | Neutralization by PGT-122, IC80 [11]: 6.58 µg/mL | Neutralization by PGT-122, IC90 [11]: > 10 µg/mL | Neutralization by PGT-122, IC95 [11]: > 10 µg/mL | Neutralization by PGT-122, IC50 [12]: 7.2 ng/mL | Neutralization by PGT-122, IC80 [12]: 0.0407 µg/mL | Neutralization by PGT-122, IC90 [12]: 0.113 µg/mL | Neutralization by PGT-122, IC95 [12]: 0.289 µg/mL | Neutralization by PGT-122, IC50 [13]: 2.06 µg/mL | Neutralization by PGT-122, IC80 [13]: > 10 µg/mL | Neutralization by PGT-122, IC90 [13]: > 10 µg/mL | Neutralization by PGT-122, IC95 [13]: > 10 µg/mL | Neutralization by PGT-122, IC50 [14]: > 10 µg/mL | Neutralization by PGT-122, IC80 [14]: > 10 µg/mL | Neutralization by PGT-122, IC90 [14]: > 10 µg/mL | Neutralization by PGT-122, IC95 [14]: > 10 µg/mL

5123_A06 (PGT-125) (antibody)
Neutralization by PGT-125, IC50 [15]: 0.0214 µg/mL | Neutralization by PGT-125, IC80 [15]: 0.0738 µg/mL | Neutralization by PGT-125, IC90 [15]: 0.156 µg/mL | Neutralization by PGT-125, IC95 [15]: 0.323 µg/mL | Neutralization by PGT-125, IC50 [16]: 0.0382 µg/mL | Neutralization by PGT-125, IC80 [16]: 0.144 µg/mL | Neutralization by PGT-125, IC90 [16]: 0.339 µg/mL | Neutralization by PGT-125, IC95 [16]: 0.892 µg/mL | Neutralization by PGT-125, IC50 [17]: > 10 µg/mL | Neutralization by PGT-125, IC80 [17]: > 10 µg/mL | Neutralization by PGT-125, IC90 [17]: > 10 µg/mL | Neutralization by PGT-125, IC95 [17]: > 10 µg/mL | Neutralization by PGT-125, IC50 [18]: > 10 µg/mL | Neutralization by PGT-125, IC80 [18]: > 10 µg/mL | Neutralization by PGT-125, IC90 [18]: > 10 µg/mL | Neutralization by PGT-125, IC95 [18]: > 10 µg/mL | Neutralization by PGT-125, IC50 [19]: 0.0106 µg/mL | Neutralization by PGT-125, IC80 [19]: 0.035 µg/mL | Neutralization by PGT-125, IC90 [19]: 0.0705 µg/mL | Neutralization by PGT-125, IC95 [19]: 0.134 µg/mL | Neutralization by PGT-125, IC50 [20]: 0.0137 µg/mL | Neutralization by PGT-125, IC80 [20]: 0.0494 µg/mL | Neutralization by PGT-125, IC90 [20]: 0.106 µg/mL | Neutralization by PGT-125, IC95 [20]: 0.216 µg/mL | Neutralization by PGT-125, IC50 [21]: 6.6 ng/mL | Neutralization by PGT-125, IC80 [21]: 0.0292 µg/mL | Neutralization by PGT-125, IC90 [21]: 0.0701 µg/mL | Neutralization by PGT-125, IC95 [21]: 0.157 µg/mL | Neutralization by PGT-125, IC50 [22]: 2.8 ng/mL | Neutralization by PGT-125, IC80 [22]: 0.011 µg/mL | Neutralization by PGT-125, IC90 [22]: 0.0248 µg/mL | Neutralization by PGT-125, IC95 [22]: 0.0526 µg/mL

PGV04 (antibody)
IC50, pseudovirus neutralization [23]: 0.175 µg/mL | IC50 (µg/mL), pseudovirus neutralization [24]: 2.38 µg/mL | IC50 (µg/mL), pseudovirus neutralization [25]: 0.048 µg/mL

VRC01 (antibody)
IC50, pseudovirus neutralization [26]: > 50 µg/mL | IC50 [27]: 1.11 µg/mL | IC50, pseudovirus neutralization [28]: 0.197 µg/mL | IC50, pseudovirus neutralization [29]: 0.031 µg/mL
